Test results reported in US20240309109A1.

Biological target: human CD38 Fc-fusion aa 45-300 (human) (UniProt P28907)
Experiment: ELISA on CD38 Fc-fusion protein, IgG format

Row | ELISA CD38 Fc-Fusion protein (% Reactivity of MOR03087) | Binder
1 | 126% | MOR06189 IgG (antibody, part only; not given: Light chain, constant regions, V domains shown, part only) VH: QVQLVESGGGLVQPGGSLRLSCAASGFTFSSYYMNWVRQAPGKGLEWVSAINMIGNVTNYADSVKGRFTISRDNSKNTLYLQMNSLRAEDTAVYYCARDLPLVYTGFAYWGQGTLVTVSS
2 | 125% | MOR06190 IgG (antibody, part only; not given: Light chain, constant regions, V domains shown, part only) VH: QVQLVESGGGLVQPGGSLRLSCAASGFTFSSYYMNWVRQAPGKGLEWVSYINPNGMMTNYADSVKGRFTISRDNSKNTLYLQMNSLRAEDTAVYYCARDLPLVYTGFAYWGQGTLVTVSS
